Test results published in patent publication US5821048, “Methods, kits, and compositions for diagnosing papillomavirus infection” (President and Fellows of Harvard College, dated 1998).

B1: GST fusion protein containing amino acids 200-424 of SEQ ID NO:1 (BPV-1 E1) (other)
chain: AEVFFEASFELLKKQCSFLQMQKRSHEGGTCAVYLICFNTAKSRETVRNLMANTLNVREECLMLQPAKIRGLSAALFWFKSSLSPATLKHGALPEWIRAQTTLNESLQTEKFDFGTMVQWAYDHKYAEESKIAYEYALAAGSDSNARAFLATNSQAKHVKDCATMVRHYLRAETQALSMPAYIKARCKLATGEGSWKSILTFFNYQNIELITFINALKLWLKGIP
B2: BPV-1 E1 (amino acids 1-222)-GST fusion protein (other)
chain: MANDKGSNWDSGLGCSYLLTEAECESDKENEEPGAGVELSVESDRYDSQDEDFVDNASVFQGNHLEVFQALEKKAGEEQILNLKRKVLGSSQNSSGSEASETPVKRRKSGAKRRLFAENEANRVLTPLQVQGEGEGRQELNEEQAISHLHLQLVKSKNATVFKLGLFKSLFLCSFHDITRLFKNDKTTNQQWVLAVFGLAEVFFEASFELLKKQCSFLQMQK
B3: GST fusion protein containing BPV-1 E1 amino acids 1-128 (other)
chain: MANDKGSNWDSGLGCSYLLTEAECESDKENEEPGAGVELSVESDRYDSQDEDFVDNASVFQGNHLEVFQALEKKAGEEQILNLKRKVLGSSQNSSGSEASETPVKRRKSGAKRRLFAENEANRVLTPL

How the values were obtained:
[1] = target: T1, full length BPV-1 E2 protein, in vitro translated (bovine papillomavirus-1, 35S-methionine-labelled); assay: GST pull-down of in vitro translated 35S-E2
T1 chain: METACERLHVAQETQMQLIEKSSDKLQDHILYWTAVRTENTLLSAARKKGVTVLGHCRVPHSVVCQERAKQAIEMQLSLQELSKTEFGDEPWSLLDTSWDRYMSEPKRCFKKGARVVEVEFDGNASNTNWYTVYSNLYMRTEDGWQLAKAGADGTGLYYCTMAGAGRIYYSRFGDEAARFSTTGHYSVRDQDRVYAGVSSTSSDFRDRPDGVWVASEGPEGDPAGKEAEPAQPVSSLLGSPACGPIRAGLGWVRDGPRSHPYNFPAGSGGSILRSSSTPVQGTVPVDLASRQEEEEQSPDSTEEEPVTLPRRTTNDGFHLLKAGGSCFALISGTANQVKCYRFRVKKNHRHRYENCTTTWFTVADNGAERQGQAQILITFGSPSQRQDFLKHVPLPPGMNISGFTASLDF

[2] = target: T2, BPV-1 E2 protein bearing a deletion of the amino terminal 52 amino acids (bovine papillomavirus-1, 35S-methionine-labelled); assay: GST pull-down of in vitro translated 35S-E2 forms
T2 chain: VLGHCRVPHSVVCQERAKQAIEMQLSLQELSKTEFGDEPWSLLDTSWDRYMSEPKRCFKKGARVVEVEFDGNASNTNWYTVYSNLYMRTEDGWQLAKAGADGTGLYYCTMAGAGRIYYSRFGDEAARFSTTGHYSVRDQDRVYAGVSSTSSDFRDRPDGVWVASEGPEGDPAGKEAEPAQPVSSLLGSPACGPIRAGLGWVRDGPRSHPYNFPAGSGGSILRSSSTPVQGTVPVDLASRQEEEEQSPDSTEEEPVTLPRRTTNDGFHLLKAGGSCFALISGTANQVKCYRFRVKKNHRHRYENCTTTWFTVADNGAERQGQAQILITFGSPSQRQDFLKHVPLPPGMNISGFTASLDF

BPV-1 E2 (aa161-410) = target: T3, BPV-1 E2 (aa161-410) (bovine papillomavirus-1, 35S-methionine-labelled); assay: GST pull-down of in vitro translated 35S-E2 forms
T3 chain: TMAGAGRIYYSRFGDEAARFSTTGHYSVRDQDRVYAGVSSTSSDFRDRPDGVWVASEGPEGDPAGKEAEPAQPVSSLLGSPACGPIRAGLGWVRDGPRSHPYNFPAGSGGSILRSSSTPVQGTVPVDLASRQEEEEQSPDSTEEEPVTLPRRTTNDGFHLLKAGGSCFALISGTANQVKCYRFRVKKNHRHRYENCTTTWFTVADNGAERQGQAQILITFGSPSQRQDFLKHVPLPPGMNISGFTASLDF

Binder	binding result [1]	binding result [2]	binding result (BPV-1 E2 (aa161-410))
B1	no binding	–	–
B2	–	no binding	no binding
B3	no binding	–	–
